Measured values as given in PMC12704761, “RAD51AP1 is a versatile RAD51 modulator” (Proceedings of the National Academy of Sciences of the …, 2025).
One block for each binder: values may come before it.

B2: RAD51 recombinase (natural protein)
chain: MAMQMQLEANADTSVEEESFGPQPISRLEQCGINANDVKKLEEAGFHTVEAVAYAPKKELINIKGISEAKADKILAEAAKLVPMGFTTATEFHQRRSEIIQITTGSKELDKLLQGGIETGSITEMFGEFRTGKTQICHTLAVTCQLPIDRGGGEGKAMYIDTEGTFRPERLLAVAERYGLSGSDVLDNVAYARAFNTDHQTQLLYQASAMMVESRYALLIVDSATALYRTDYSGRGELSARQMHLARFLRMLLRLADEFGVAVVITNQVVAQVDGAAMFAADPKKPIGGNIIAHASTTRLYLRKGRGETRICKIYDSPCLPEAEAMFAINADGVGDAKD
notes: RAD51 recombinase, wild type; expressed from the pCH1-derived plasmid pJ9; In the cryo-EM samples it stood as a filament on ssDNA with Ca2+-ATP, Mg2+-ATP or Mg2+-ADP; the introduction speaks of the human genome and the discussion sets 'mouse proteins' of earlier work apart; source: E. coli BL21 (DE3), coexpressed with His-MBP-BRC4 and GroEL, purified (HisTrap, HiTrap Heparin, HiTrap Q)

Columns and labels:
RAD51 recombinase = target: B2; experiment: cryo-EM structure; RAD51-ssDNA filaments formed with Mg2+-ATP (7 µM RAD51) mixed with C29 (28 µM); single particle analysis, 3.0 Å; conditions: both partners purified
[1] = target: T1, RAD51AP1 Site-N mutant, full-length (UniProt Q96B01 1-352, K300 to alanine | K303 to alanine | W304 to alanine | P306 to alanine | P307 to …); experiment: pull-down; His-tagged full-length RAD51AP1 (1 µM) immobilised on magnetic cobalt resin, RAD51 (1 µM) in pull-down buffer with ATP and Mg2+, 37 °C, 5 min; SDS-PAGE of supernatant and eluate; conditions: both partners purified
T1 construct: RAD51AP1 with five conserved Site-N residues (K300, K303, W304, P306, P307) mutated to alanine; source: expressed from a pET28 vector, purified (HisTrap, HiTrap Heparin, HiTrap Q, gel filtration); not shown: His6, C-terminal, kept
T1 sequence (looked up): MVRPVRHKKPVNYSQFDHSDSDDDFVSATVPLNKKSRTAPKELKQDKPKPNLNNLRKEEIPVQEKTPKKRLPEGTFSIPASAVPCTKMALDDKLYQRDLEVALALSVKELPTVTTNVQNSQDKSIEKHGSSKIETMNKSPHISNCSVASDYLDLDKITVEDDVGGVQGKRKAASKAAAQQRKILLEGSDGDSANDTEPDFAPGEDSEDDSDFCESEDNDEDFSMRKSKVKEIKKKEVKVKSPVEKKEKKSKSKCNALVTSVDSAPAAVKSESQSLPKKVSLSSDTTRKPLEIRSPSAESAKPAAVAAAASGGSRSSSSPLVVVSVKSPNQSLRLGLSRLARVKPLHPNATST

[2] = target: T2, RAD51AP1-H346A (Site-C mutant), full-length (UniProt Q96B01 1-352, H346A); experiment: BLI; RAD51AP1 with C-terminal hexahistidine tag on nickel-NTA biosensors, RAD51 2.5 µM to 39 nM, Octet Red, 25 °C, Kd from response against concentration, 1:1 model; conditions: both partners purified
T2 construct: RAD51AP1 with H346A; source: expressed from a pET28 vector, purified (HisTrap, HiTrap Heparin, HiTrap Q, gel filtration); not shown: His6, C-terminal, kept
T2 sequence (looked up): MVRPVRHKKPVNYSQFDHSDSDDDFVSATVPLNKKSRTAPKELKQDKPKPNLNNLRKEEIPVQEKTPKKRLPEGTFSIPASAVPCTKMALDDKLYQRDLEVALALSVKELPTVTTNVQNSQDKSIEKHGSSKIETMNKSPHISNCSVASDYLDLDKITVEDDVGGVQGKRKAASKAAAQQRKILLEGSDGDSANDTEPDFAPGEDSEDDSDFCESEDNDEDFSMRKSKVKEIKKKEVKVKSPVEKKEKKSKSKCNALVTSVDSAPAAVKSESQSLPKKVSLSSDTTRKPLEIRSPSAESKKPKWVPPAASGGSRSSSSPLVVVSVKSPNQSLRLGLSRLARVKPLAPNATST

[3] = target: T3, RAD51AP1 (RAD51 associated protein 1), full-length wild type (UniProt Q96B01 1-352); experiment: as above; conditions: both partners purified
T3 construct: RAD51AP1, synthetic gene from Invitrogen; printed residue numbers (H346); One of PDB 9QN8, 9QNA, 9QNB, 9QNC holds its modelled residues; Detailed protocols are in SI Appendix, Supplementary Methods; also called WT; source: expressed from a pET28 vector, purified (HisTrap, HiTrap Heparin, HiTrap Q, gel filtration); not shown: His6, C-terminal, kept
T3 sequence (looked up): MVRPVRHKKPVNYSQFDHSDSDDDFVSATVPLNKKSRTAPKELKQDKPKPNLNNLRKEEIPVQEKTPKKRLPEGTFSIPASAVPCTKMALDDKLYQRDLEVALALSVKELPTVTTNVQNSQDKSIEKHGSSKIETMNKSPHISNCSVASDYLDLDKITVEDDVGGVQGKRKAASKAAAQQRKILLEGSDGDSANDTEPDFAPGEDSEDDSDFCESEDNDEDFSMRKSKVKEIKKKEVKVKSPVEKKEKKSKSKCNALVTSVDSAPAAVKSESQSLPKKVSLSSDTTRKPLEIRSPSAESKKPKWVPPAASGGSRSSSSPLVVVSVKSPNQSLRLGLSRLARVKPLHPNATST

[4] = target: T4, RAD51AP1 Site-NC double mutant, full-length (UniProt Q96B01 1-352, K300 to alanine | K303 to alanine | W304 to alanine | P306 to alanine | P307 to …); experiment: as above; conditions: both partners purified
T4 construct: RAD51AP1 in which both Site-N (K300, K303, W304, P306, P307 to alanine) and Site-C (H346A) are mutated; also called Site-N and Site-C double mutant; source: expressed from a pET28 vector, purified (HisTrap, HiTrap Heparin, HiTrap Q, gel filtration); not shown: His6, C-terminal, kept
T4 sequence (looked up): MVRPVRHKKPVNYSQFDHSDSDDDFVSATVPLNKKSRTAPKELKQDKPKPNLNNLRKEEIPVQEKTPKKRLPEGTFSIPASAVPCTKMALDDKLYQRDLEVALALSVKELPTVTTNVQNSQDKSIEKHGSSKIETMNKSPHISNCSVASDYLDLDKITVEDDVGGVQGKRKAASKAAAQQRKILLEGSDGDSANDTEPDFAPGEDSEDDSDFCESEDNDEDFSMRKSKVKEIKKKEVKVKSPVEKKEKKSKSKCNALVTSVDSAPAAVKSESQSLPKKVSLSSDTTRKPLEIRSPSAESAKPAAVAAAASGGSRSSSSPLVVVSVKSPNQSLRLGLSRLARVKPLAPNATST

[5] = target: T5, RAD51 recombinase, Q06609; experiment: pull-down; conditions: chain shown with the change; n = 3; parent: est. 54; read off a plot
T5 chain: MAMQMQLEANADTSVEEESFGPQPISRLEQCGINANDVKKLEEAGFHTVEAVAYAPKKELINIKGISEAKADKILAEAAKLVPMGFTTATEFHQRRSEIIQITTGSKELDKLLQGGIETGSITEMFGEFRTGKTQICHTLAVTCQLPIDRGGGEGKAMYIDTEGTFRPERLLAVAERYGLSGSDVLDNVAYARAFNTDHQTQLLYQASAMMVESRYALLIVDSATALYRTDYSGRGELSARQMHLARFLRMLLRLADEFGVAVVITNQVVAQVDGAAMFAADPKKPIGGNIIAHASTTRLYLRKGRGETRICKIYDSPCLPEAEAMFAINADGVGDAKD

- binding result (RAD51 recombinase): binds
B1: RAD51AP1 C29 (domain or fragment, UniProt Q96B01 324-352, looked up)
chain: SVKSPNQSLRLGLSRLARVKPLHPNATST
notes: RAD51AP1, C-terminal 29 residues; lacks Site-N, contains Site-M and Site-C; One of PDB 9QN8, 9QNA, 9QNB, 9QNC holds it; also called RAD51AP1 C29 fragment; RAD51AP1 C-terminal domain

Binder: B2
- binding result [1]: binds
- fold decrease in binding affinity against wild-type RAD51AP1 [2]: ~2.5 fold
- Kd [3]: ~600 nM
- fold reduction in affinity against wild-type RAD51AP1 [4]: ~4 fold

- response [5]: 60%
B3: RAD51AP1 C59, wild type K300A; K303A; W304A; P306A; P307A (protein)
chain: SPSAESAKPAAVAAAASGGSRSSSSPLVVVSVKSPNQSLRLGLSRLARVKPLHPNATST
